Article PMC9122904, “Insights into the client protein release mechanism of the ATP-independent chaperone Spy” (Nature Communications, 2022)

Experiments:
Assay in all cases: BLI; Octet RED96; client biotinylated and loaded on streptavidin sensors; Spy or Spy variant in solution at 0.25, 0.5, 1, 1.5 and 2 μM; 40 mM HEPES, 150 mM NaCl, pH 7.5; Kd calculated as koff/kon
Details in all cases: both partners purified
Spy D26A [1] = molecular target: T1, Spy D26A (UniProt P77754 24-161, D26A)
T1 construct: source: E. coli BL21 (DE3), purified (Ni-NTA, cation exchange, SEC); not shown: His6, N-terminal, cleaved; SUMO, N-terminal, cleaved
T1 sequence (looked up): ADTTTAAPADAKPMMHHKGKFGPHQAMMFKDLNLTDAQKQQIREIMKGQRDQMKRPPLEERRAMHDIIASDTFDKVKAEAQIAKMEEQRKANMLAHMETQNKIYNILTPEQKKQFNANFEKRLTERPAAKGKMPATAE

Spy D26E [2] = molecular target: T2, Spy D26E (UniProt P77754 24-161, D26E)
T2 construct: source: E. coli BL21 (DE3), purified (Ni-NTA, cation exchange, SEC); not shown: His6, N-terminal, cleaved; SUMO, N-terminal, cleaved
T2 sequence (looked up): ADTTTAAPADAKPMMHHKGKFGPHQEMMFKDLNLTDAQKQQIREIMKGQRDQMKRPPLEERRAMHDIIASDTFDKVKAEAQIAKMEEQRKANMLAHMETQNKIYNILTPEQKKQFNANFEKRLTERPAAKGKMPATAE

Spy D26K = molecular target: T3, Spy D26K (UniProt P77754 24-161, D26K)
T3 construct: source: E. coli BL21 (DE3), purified (Ni-NTA, cation exchange, SEC); not shown: His6, N-terminal, cleaved; SUMO, N-terminal, cleaved
T3 sequence (looked up): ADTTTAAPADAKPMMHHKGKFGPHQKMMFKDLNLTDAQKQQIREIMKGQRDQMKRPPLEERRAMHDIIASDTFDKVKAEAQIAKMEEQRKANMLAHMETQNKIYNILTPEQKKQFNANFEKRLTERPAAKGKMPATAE

Spy D26R = molecular target: T4, Spy D26R (UniProt P77754 24-161, D26R)
T4 construct: source: E. coli BL21 (DE3), purified (Ni-NTA, cation exchange, SEC); not shown: His6, N-terminal, cleaved; SUMO, N-terminal, cleaved
T4 sequence (looked up): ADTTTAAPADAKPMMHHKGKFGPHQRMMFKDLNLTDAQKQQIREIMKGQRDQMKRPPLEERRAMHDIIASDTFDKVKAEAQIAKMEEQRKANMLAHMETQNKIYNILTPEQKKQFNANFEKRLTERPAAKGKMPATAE

Spy D26A [3] = molecular target: T1, Spy D26A; remark: listed apart in the source
Spy D26E [4] = molecular target: T2, Spy D26E; remark: listed apart in the source
Spy_(27-124) = molecular target: T5, Spy_(27-124) (UniProt P77754 50-147)
T5 construct: source: E. coli BL21 (DE3), purified (Ni-NTA, cation exchange, SEC); not shown: His6, N-terminal, cleaved; SUMO, N-terminal, cleaved
T5 sequence (looked up): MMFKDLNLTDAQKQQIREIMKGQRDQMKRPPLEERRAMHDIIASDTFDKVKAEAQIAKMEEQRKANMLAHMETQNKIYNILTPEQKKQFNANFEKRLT
Method in brief: (§1)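 Association was recorded with an Octet RED96 as streptavidin sensors carrying client proteins, biotinylated with EZ-link NHS-biotin at a 1:1 molar ratio, sat in 40 mM HEPES, 150 mM NaCl, pH 7.5 with 0.25 to 2 μM of the analyte protein (0.25, 0.5, 1, 1.5 and 2 μM). Dissociation followed after transfer to analyte-free buffer. Both wavelength-shift phases were fitted in SigmaPlot 12.0 to obtain koff and the observed association rate, whose dependence on analyte concentration yielded kon, with Kd defined as koff divided by kon.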

Spy_(29-138) = molecular target: T6, Spy_(29-138) (UniProt P77754 52-161)
T6 construct: source: E. coli BL21 (DE3), purified (Ni-NTA, cation exchange, SEC); not shown: His6, N-terminal, cleaved; SUMO, N-terminal, cleaved
T6 sequence (looked up): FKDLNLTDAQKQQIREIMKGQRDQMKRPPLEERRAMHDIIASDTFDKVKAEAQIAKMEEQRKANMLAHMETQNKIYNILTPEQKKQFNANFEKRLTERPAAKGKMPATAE
Method in brief: as §1

Spy_(21-124) = molecular target: T7, Spy_(21-124) (UniProt P77754 44-147)
T7 construct: source: E. coli BL21 (DE3), purified (Ni-NTA, cation exchange, SEC); not shown: His6, N-terminal, cleaved; SUMO, N-terminal, cleaved
T7 sequence (looked up): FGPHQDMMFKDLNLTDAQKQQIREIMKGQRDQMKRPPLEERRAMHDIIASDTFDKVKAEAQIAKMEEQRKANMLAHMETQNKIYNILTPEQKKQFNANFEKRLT
Method in brief: as §1

Spy_(24-130) = molecular target: T8, Spy_(24-130) (UniProt P77754 47-153)
T8 construct: Spy chaperone, residues 24-130; source: E. coli BL21 (DE3), purified (Ni-NTA, cation exchange, SEC); not shown: His6, N-terminal, cleaved; SUMO, N-terminal, cleaved
T8 sequence (looked up): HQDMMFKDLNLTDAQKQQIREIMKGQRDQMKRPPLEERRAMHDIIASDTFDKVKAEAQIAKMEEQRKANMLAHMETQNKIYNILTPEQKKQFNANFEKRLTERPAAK
Method in brief: as §1

B1: Im7 H40W L53A I54A (natural protein)
chain: MELKNSISDYTEAEFVQLLKEIEKENVAATDDVLDVLLEWFVKITEHPDGTDAAYYPSDNRDDSPEGIVKEIKEWRAANGKPGFKQG
modifications: biotin (EZ-link NHS-biotin, 1:1 molar ratio of biotin to protein)
notes: Im7 (colicin E7 immunity protein) with H40W L53A I54A; Spy was made with an N-terminal His6-SUMO tag that was cleaved; also called Im7AAW; partially folded client; source: purified by a similar procedure to Spy
Kd (Spy D26A [1]): 274 nM
Kd (Spy D26E [2]): 637 nM
kon (Spy D26K): 317000 M⁻¹ s⁻¹
kon (Spy D26R): 287000 M⁻¹ s⁻¹
kon (Spy D26A [3]): 322000 M⁻¹ s⁻¹
kon (Spy D26E [4]): 306000 M⁻¹ s⁻¹
koff (Spy_(27-124)): 0.089 s⁻¹
koff (Spy_(29-138)): 0.0893 s⁻¹
koff (Spy_(21-124)): 0.487 s⁻¹
koff (Spy_(24-130)): 0.3 s⁻¹
